The source of these data is patent US20040138106A1.

Bounds are passed on as bounds.

The target of the experiment is Gly4→Compound A mutant myoglobin (myoglobin containing β-O-GlcNAc-L-serine at position 4, C-terminal His6 tag) (UniProt P02185). The experiment is described as follows: ELISA-like assay: 200 ng myoglobin immobilized, biotinylated BSII, streptavidin-alkaline phosphatase, p-nitrophenyl phosphate, A405. (In general: In an ELISA, binding on a coated surface is turned into a signal by an enzyme label.)
Sequence of Gly4→Compound A mutant myoglobin (myoglobin containing β-O-GlcNAc-L-serine at position 4, C-terminal His6 tag) (P02185 other isoform, or with tags, fused parts or gaps mutant): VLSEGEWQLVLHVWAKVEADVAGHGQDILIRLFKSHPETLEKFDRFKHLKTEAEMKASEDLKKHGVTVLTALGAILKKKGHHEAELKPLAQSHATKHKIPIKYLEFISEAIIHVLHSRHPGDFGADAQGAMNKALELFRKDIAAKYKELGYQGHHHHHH

With “GlcNAc-specific lectin, Bandeiraea simplicifolia II (BSII), biotinylated”, the fold signal (A405) against wild-type myoglobin is more than 200 fold.
